According to FireProtDB (doi:10.1021/bi00252a018):

B1: Subtilisin inhibitor, P01006 (parent)
chain: MRNTGAGPSPSVSRPPPSAAPLSGAALAAPGDAPSALYAPSALVLTVGKGVSATTAAPERAVTLTCAPGPSGTHPAAGSACADLAAVGGDLNALTRGEDVMCPMVYDPVLLTVDGVWQGKRVSYERVFSNECEMNAHGSSVFAF

Variants of: B1
Conditions: Streptomyces albogriseolus; pH 2.3; Thermal; DSC; glycine 25 mM; reversible: yes (70-85%); structure 3SSI; whole UniProt chain shown

Row | Variant | Tm [°C]
1 | MRNTGAGPSPSVSRPPPSAAPLSGAALAAPGDAPSALYAPSALVLTVGKGVSATTAAPERAVTLTCAPGPSGTHPAAGSACADLAAVGGDLNALTRGEDVMCPMVYDPVLLTVCGVWQGKRVSYERVFSNECEMNAHGSSVFAF [D114C] | 48

Same assay, conditions: Streptomyces albogriseolus; pH 2.4; Thermal; DSC; glycine 25 mM; reversible: yes (70-85%); structure 3SSI; whole UniProt chain shown

Row | Variant | Tm [°C]
2 | MRNTGAGPSPSVSRPPPSAAPLSGAALAAPGDAPSALYAPSALVLTVGKGVSATTAAPERAVTLTCAPGPSGTHPAAGSACADLAAVGGDLNALTRGEDVMCPMVYDPVLLTVCGVWQGKRVSYERVFSNECEMNAHGSSVFAF [D114C] | 50

Same assay, conditions: Streptomyces albogriseolus; pH 2.5; Thermal; DSC; glycine 25 mM; reversible: yes (70-85%); structure 3SSI; whole UniProt chain shown

Row | Variant | Tm [°C]
3 | MRNTGAGPSPSVSRPPPSAAPLSGAALAAPGDAPSALYAPSALVLTVGKGVSATTAAPERAVTLTCAPGPSGTHPAAGSACADLAAVGGDLNALTRGEDVMCPMVYDPVLLTVCGVWQGKRVSYERVFSNECEMNAHGSSVFAF [D114C] | 52.5

Same assay, conditions: Streptomyces albogriseolus; pH 2.56; Thermal; DSC; glycine 25 mM; reversible: yes (70-85%); structure 3SSI; whole UniProt chain shown

Row | Variant | Tm [°C]
4 | MRNTGAGPSPSVSRPPPSAAPLSGAALAAPGDAPSALYAPSALVLTVGKGVSATTAAPERAVTLTCAPGPSGTHPAAGSACADLAAVGGDLNALTRGEDVMCPMVYDPVLLTVCGVWQGKRVSYERVFSNECEMNAHGSSVFAF [D114C] | 53.2

Same assay, conditions: Streptomyces albogriseolus; pH 2.59; Thermal; DSC; glycine 25 mM; reversible: yes (70-85%); structure 3SSI; whole UniProt chain shown

Row | Variant | Tm [°C]
5 | MRNTGAGPSPSVSRPPPSAAPLSGAALAAPGDAPSALYAPSALVLTVGKGVSATTAAPERAVTLTCAPGPSGTHPAAGSACADLAAVGGDLNALTRGEDVMCPMVYDPVLLTVCGVWQGKRVSYERVFSNECEMNAHGSSVFAF [D114C] | 54.2

Same assay, conditions: Streptomyces albogriseolus; pH 2.68; Thermal; DSC; glycine 25 mM; reversible: yes (70-85%); structure 3SSI; whole UniProt chain shown

Row | Variant | Tm [°C]
6 | MRNTGAGPSPSVSRPPPSAAPLSGAALAAPGDAPSALYAPSALVLTVGKGVSATTAAPERAVTLTCAPGPSGTHPAAGSACADLAAVGGDLNALTRGEDVMCPMVYDPVLLTVCGVWQGKRVSYERVFSNECEMNAHGSSVFAF [D114C] | 56.2

Same assay, conditions: Streptomyces albogriseolus; pH 2.8; Thermal; DSC; glycine 25 mM; reversible: yes (70-85%); structure 3SSI; whole UniProt chain shown

Row | Variant | Tm [°C]
7 | MRNTGAGPSPSVSRPPPSAAPLSGAALAAPGDAPSALYAPSALVLTVGKGVSATTAAPERAVTLTCAPGPSGTHPAAGSACADLAAVGGDLNALTRGEDVMCPMVYDPVLLTVCGVWQGKRVSYERVFSNECEMNAHGSSVFAF [D114C] | 58.8

Same assay, conditions: Streptomyces albogriseolus; pH 2.88; Thermal; DSC; glycine 25 mM; reversible: yes (70-85%); structure 3SSI; whole UniProt chain shown

Row | Variant | Tm [°C]
8 | MRNTGAGPSPSVSRPPPSAAPLSGAALAAPGDAPSALYAPSALVLTVGKGVSATTAAPERAVTLTCAPGPSGTHPAAGSACADLAAVGGDLNALTRGEDVMCPMVYDPVLLTVCGVWQGKRVSYERVFSNECEMNAHGSSVFAF [D114C] | 59.9

Same assay, conditions: Streptomyces albogriseolus; pH 2.89; Thermal; DSC; glycine 25 mM; reversible: yes (70-85%); structure 3SSI; whole UniProt chain shown

Row | Variant | Tm [°C]
9 | MRNTGAGPSPSVSRPPPSAAPLSGAALAAPGDAPSALYAPSALVLTVGKGVSATTAAPERAVTLTCAPGPSGTHPAAGSACADLAAVGGDLNALTRGEDVMCPMVYDPVLLTVCGVWQGKRVSYERVFSNECEMNAHGSSVFAF [D114C] | 60.5

Same assay, conditions: Streptomyces albogriseolus; pH 2.94; Thermal; DSC; glycine 25 mM; reversible: yes (70-85%); structure 3SSI; whole UniProt chain shown

Row | Variant | Tm [°C] | change of melting temperature, mutant - wild type (higher = more stable) [°C]
10 | MRNTGAGPSPSVSRPPPSAAPLSGAALAAPGDAPSALYAPSALVLTVGKGVSATTAAPERAVTLTCAPGPSGTHPAAGSACADLAAVGGDLNALTRGEDVMCPMVYDPVLLTVCGVWQGKRVSYERVFSNECEMNAHGSSVFAF [D114C] | 61.2 | 17.2

Same assay, conditions: Streptomyces albogriseolus; pH 3.04; Thermal; DSC; glycine 25 mM; reversible: yes (70-85%); structure 3SSI; whole UniProt chain shown

Row | Variant | Tm [°C] | change of melting temperature, mutant - wild type (higher = more stable) [°C]
11 | MRNTGAGPSPSVSRPPPSAAPLSGAALAAPGDAPSALYAPSALVLTVGKGVSATTAAPERAVTLTCAPGPSGTHPAAGSACADLAAVGGDLNALTRGEDVMCPMVYDPVLLTVCGVWQGKRVSYERVFSNECEMNAHGSSVFAF [D114C] | 63.2 | 15.6

Same assay, conditions: Streptomyces albogriseolus; pH 3.07; Thermal; DSC; glycine 25 mM; reversible: yes (70-85%); structure 3SSI; whole UniProt chain shown

Row | Variant | Tm [°C] | change of melting temperature, mutant - wild type (higher = more stable) [°C]
12 | MRNTGAGPSPSVSRPPPSAAPLSGAALAAPGDAPSALYAPSALVLTVGKGVSATTAAPERAVTLTCAPGPSGTHPAAGSACADLAAVGGDLNALTRGEDVMCPMVYDPVLLTVCGVWQGKRVSYERVFSNECEMNAHGSSVFAF [D114C] | 64.5 | 15.7

Same assay, conditions: Streptomyces albogriseolus; pH 3.16; Thermal; DSC; glycine 25 mM; reversible: yes (70-85%); structure 3SSI; whole UniProt chain shown

Row | Variant | Tm [°C] | change of melting temperature, mutant - wild type (higher = more stable) [°C]
13 | MRNTGAGPSPSVSRPPPSAAPLSGAALAAPGDAPSALYAPSALVLTVGKGVSATTAAPERAVTLTCAPGPSGTHPAAGSACADLAAVGGDLNALTRGEDVMCPMVYDPVLLTVCGVWQGKRVSYERVFSNECEMNAHGSSVFAF [D114C] | 66.5 | 14.3

Same assay, conditions: Streptomyces albogriseolus; pH 3.25; Thermal; DSC; glycine 25 mM; reversible: yes (70-85%); structure 3SSI; whole UniProt chain shown

Row | Variant | Tm [°C] | change of melting temperature, mutant - wild type (higher = more stable) [°C]
14 | MRNTGAGPSPSVSRPPPSAAPLSGAALAAPGDAPSALYAPSALVLTVGKGVSATTAAPERAVTLTCAPGPSGTHPAAGSACADLAAVGGDLNALTRGEDVMCPMVYDPVLLTVCGVWQGKRVSYERVFSNECEMNAHGSSVFAF [D114C] | 68.8 | 13.1

Same assay, conditions: Streptomyces albogriseolus; pH 7; Thermal; DSC; phosphate 25 mM; reversible: yes (70-85%); structure 3SSI; whole UniProt chain shown

Row | Variant | Tm [°C] | change of melting temperature, mutant - wild type (higher = more stable) [°C]
15 | MRNTGAGPSPSVSRPPPSAAPLSGAALAAPGDAPSALYAPSALVLTVGKGVSATTAAPERAVTLTCAPGPSGTHPAAGSACADLAAVGGDLNALTRGEDVMCPMVYDPVLLTVCGVWQGKRVSYERVFSNECEMNAHGSSVFAF [D114C] | 95.3 | 13.3

Same assay, conditions: Streptomyces albogriseolus; pH 9.5; Thermal; DSC; glycine 25 mM; reversible: yes (70-85%); structure 3SSI; whole UniProt chain shown

Row | Variant | Tm [°C] | change of melting temperature, mutant - wild type (higher = more stable) [°C]
16 | MRNTGAGPSPSVSRPPPSAAPLSGAALAAPGDAPSALYAPSALVLTVGKGVSATTAAPERAVTLTCAPGPSGTHPAAGSACADLAAVGGDLNALTRGEDVMCPMVYDPVLLTVCGVWQGKRVSYERVFSNECEMNAHGSSVFAF [D114C] | 95 | 14.3

Same assay, conditions: Streptomyces albogriseolus; pH 9.75; Thermal; DSC; glycine 25 mM; reversible: yes (70-85%); structure 3SSI; whole UniProt chain shown

Row | Variant | Tm [°C] | change of melting temperature, mutant - wild type (higher = more stable) [°C]
17 | MRNTGAGPSPSVSRPPPSAAPLSGAALAAPGDAPSALYAPSALVLTVGKGVSATTAAPERAVTLTCAPGPSGTHPAAGSACADLAAVGGDLNALTRGEDVMCPMVYDPVLLTVCGVWQGKRVSYERVFSNECEMNAHGSSVFAF [D114C] | 94.8 | 14.6
